# Assay results as given in the RNAGym collection of RNA variant scans (doi:10.1073/pnas.2313332121).
# B1: TPR t1 (parent)
# chain: GACCAAUCUGCCCUCAGAGCUCGAGAACAUCUUCGGAUGCAGAGGAGGCAGGCUUCGGUGGCGCGAUAGCGCCAACGUCCUCAACCUCCAAUGCAUCCCACCACAUGAUGAUGCCUGAAGAGCCUUGGUUUUUUG
# Variants of: B1
# Assay: polymerase ribozyme fitness, log enrichment relative to wild type (log ratio); higher = more active; in vitro selection for triplet polymerase activity
# Summary of the method: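 The heterodimeric triplet polymerase ribozyme's subunits were each mutagenized into PCR-built libraries and transcribed. Every library was selected once, in triplicate, by annealing with a biotinylated primer, the partner subunit and triplets, incubating frozen at −7 °C, gel-excising extended constructs, capturing on streptavidin beads and running RT-PCR. Input and output libraries were Illumina-sequenced, with genotypes kept only at ≥10 input reads and ≥1 read per output. Fitness, from inverse-variance-weighted replicate averages, is the base-2 logarithm of genotype enrichment over wild-type enrichment.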
row,Variant,polymerase ribozyme fitness (log ratio)
1,C34G C80U C89G G120C U129C,-6.96
2,G36C C40U G48U U125A,-3.35
3,A37G C56U C102A,-1.87
4,C34A C72U,-2.58
5,G35A G52C C86U,-6.34
6,G36A C70U,-1.06
7,G36C A46G G63U C85U C114U,-5.92
8,G36U C56U C115G,-3.57
9,G35U G47A,-5.64
10,G35C U38G G63C C123A U129A,-5.52
11,G35A C72G U112C,-2.35
12,C34U G110U,-4.07
13,C34U G113C,-4.95
14,G36U C40A,-3.53
15,A37G C49G C82U,-0.637
16,G36A G44A G77U A84U,-2.98
17,G36U A91U,-2.67
18,C34U G60U C99U,-3.7
19,G36C G69A U112G G117A,-6.31
20,G35U U112A,-2.86
21,C34A C53G C56A,-2.83

row,Variant,polymerase ribozyme fitness (log ratio)
1,A37C A121U,1.62
2,G36U G63A C97U,-1.35
3,G36A G48U A84G,-2.02
4,G36C C49G C102A U125A,-4.36
5,C34U U87A,-4.77
6,G35A G57U A74U,-4.21
7,G36U C70G C89U,-5.64
8,U33G C124G,-4.16
9,G35A C40G C98U C123G,-0.89
10,A37C U38G,-1.27
11,G36U G60U A111U,-2.87
12,A37C,-0.431
13,A37G,-0.185
14,C34A G135U,-3.05
15,G35A U78G,-4.14
16,G36U U55G C89G G113U,-4.27
17,A37G A83C C88G U130G,-4.95
18,G35A C64U U87G,-4.86
19,A37C C123G,0.773
20,G36C C104U,-1.1
21,C34G C79U,-5.43

row,Variant,polymerase ribozyme fitness (log ratio)
1,G35U G63U C101A C115U,-5.79
2,C34A C80U G127U,-4.5
3,G36C C70G,-5.05
4,C34G A43G C53A G71A A111C C123G,-7.9
5,C34U C56U,-4.1
6,C34U C101A,-4.07
7,C34A C82A U112A,-2.63
8,A37C U67C U81C C123A,-5.95
9,C34A C89U G117U,-5.32
10,G36U G51C G69U C115U,-3.32
11,C34G C70U U96A A103U A121C U132C,-7.51
12,G35U G69U C123A C124A,-1
13,C34A C72U C85A G113A,-5.11
14,G36C C56G C72U,-2.79
15,G36U G61A,-1.47
16,U33G U55A,-4.84
17,G36C U55A U131A,-0.527
18,G36U C56A,-1.83
19,C34G C53U C73U G113C C114G,-8.55
20,C34U G47A,-4.25
21,G36U C53G C56A C72G,-3.23

row,Variant,polymerase ribozyme fitness (log ratio)
1,G36A U125A,-1.27
2,G35C G63U A74U A90G C123G G127C,-6.64
3,C34A C62U C85G U130C,-2.75
4,C34A G36U,-4.2
5,C34G G51U C104U,-6.64
6,C34A C88A U106C C114A,-6.05
7,C34U U59A U106A U109A G120A,-5.08
8,A37G A121C,2.11
9,G36A A84C G117A,-2.24
10,G36U G52A C97U G110A,-2.04
11,G36U A121G,0.373
12,C34G G39A C56A G69U C79A A103U C104G G110A C115G,-7.05
13,A37C G45C C72U C104G C115G,-7.48
14,C34U G61A,-4.7
15,C34A C62A,-4.45
16,C34U C114U U131A,-4.04
17,A37C G44A A46C G47U U59C,-6.19
18,A37G C70G,-3.43
19,C34A A74C C89G G113C A118C U131A,-5.57
20,A37C A46C C124G,0.609
